Test results from US20140056903A1 (Regeneron, published 2014).

T1: monkey GFRα3 expressed with a C-terminal myc-myc-hexahistidine tag (monkey (Mf), UniProt O60609 32-374 (human entry), limits assumed)
T1 construct: also called MfGFRα3-mmh; MfGFRα3-mmH
T1 chain: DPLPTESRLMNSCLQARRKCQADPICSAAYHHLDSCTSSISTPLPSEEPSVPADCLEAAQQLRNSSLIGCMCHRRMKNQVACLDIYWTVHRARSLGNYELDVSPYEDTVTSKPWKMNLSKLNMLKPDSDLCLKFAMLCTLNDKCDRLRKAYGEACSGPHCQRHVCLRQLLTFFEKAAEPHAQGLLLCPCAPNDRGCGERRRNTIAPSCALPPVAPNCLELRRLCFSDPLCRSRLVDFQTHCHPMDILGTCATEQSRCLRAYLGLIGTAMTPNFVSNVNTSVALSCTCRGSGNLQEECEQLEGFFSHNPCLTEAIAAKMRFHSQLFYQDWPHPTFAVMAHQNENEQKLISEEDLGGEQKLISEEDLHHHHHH

T2: human GFRα3 expressed with a C-terminal mFc tag (human)
T2 construct: also called hGFRα3-mFc
T2 chain: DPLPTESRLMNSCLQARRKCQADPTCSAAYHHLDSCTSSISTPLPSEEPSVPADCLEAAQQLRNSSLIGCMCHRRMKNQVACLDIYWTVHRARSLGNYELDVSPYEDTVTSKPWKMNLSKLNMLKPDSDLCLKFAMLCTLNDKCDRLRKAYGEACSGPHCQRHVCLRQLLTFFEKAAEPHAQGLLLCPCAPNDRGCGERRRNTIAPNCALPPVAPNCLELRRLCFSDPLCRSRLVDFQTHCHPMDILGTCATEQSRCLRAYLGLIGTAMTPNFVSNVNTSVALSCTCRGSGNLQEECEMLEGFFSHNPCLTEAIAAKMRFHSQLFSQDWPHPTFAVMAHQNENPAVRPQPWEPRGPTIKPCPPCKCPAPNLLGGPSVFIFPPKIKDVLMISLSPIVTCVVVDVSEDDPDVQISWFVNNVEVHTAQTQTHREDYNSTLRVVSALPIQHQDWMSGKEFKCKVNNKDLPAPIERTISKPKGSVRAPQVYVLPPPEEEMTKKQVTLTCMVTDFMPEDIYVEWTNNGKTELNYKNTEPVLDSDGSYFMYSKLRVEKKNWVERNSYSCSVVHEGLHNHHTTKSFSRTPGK


Assays:
[1] = biological target: T3, human GFRα3 expressed with a C-terminal myc-myc-hexahistidine tag (human, UniProt O60609 32-374, biotinylated (sites not given) in ELISA format 2 and in the Octet cross-competition; not in SPR); test: Octet cross-competition; biotin-hGFRα3-mmH pre-saturated with first antibody H4H2295S
T3 construct: also called hGFRα3-mmh; hGFRα3-mmH
Procedure: A cross-competition assay was conducted to assess the ability of select antibodies to compete with one another for binding to human GFRα3 using an Octet RED384 biosensor (Fortebio Inc.). The entire experiment was performed at 25° C. with the flow rate of 1000 rpm in Octet HBST buffer (0.01 M HEPES pH7.4, 0.15M NaCl, 3 mM EDTA, 0.05% v/v Surfactant P20, 0.1 mg/mL BSA). To assess whether 2 antibodies were able to compete with one another for binding to their respective epitopes on biotinylated recombinant human GFRα3 expressed with a C-terminal myc-myc-hexahistidine tag (biotin-hGFRα3-mmH; SEQ ID:370), around ˜1.2 nm of biotin-hGFRα3-mmH was first captured onto streptavidin-coated Octet sensor tips (Fortebio Inc, #18-5019) by submerging the tips for 1 minute into a 10 μg/mL solution of biotin-hGFRα3-mmH. The antigen coated sensor tips were then placed into wells containing 25 μg/mL solution of a first anti-GFRα3 monoclonal antibody for 4 minutes to saturate the biotin-hGFRα3-mmH surface. The sensor tips were then subsequently dipped into wells containing 25 μ/mL solution of a second anti-GFRα3 monoclonal antibody. The sensor tips were washed in Octet HBST buffer in between every step of the experiment. The real-time binding response was monitored during the course of the experiment and the binding response at the end of every step was recorded as shown in FIG. 9. The response of mAb-2 binding to biotin-hGFRα3-mmH pre-complexed with the first antibody was compared and competitive/non-competitive behavior of different anti-GFRα3 monoclonal antibodies was determined.

[2] = biological target: T1, monkey GFRα3 expressed with a …; test: SPR, Ab captured, 37C
Procedure: (§1) Antibodies were tested for binding to human GFRα3 expressed with either a C-terminal myc-myc-hexahistidine tag (hGFRα3-mmh; SEQ ID: 370, a C-terminal hFc tag (hGFRα3-hFc; SEQ ID:371), or a C-terminal mFc tag (hGFRα3-mFc; SEQ ID:372), as well as monkey GFRα3 expressed with a C-terminal myc-myc-hexahistidine tag (MfGFRα3-mmh; SEQ ID:373). Anti-GFRα3 antibodies were captured on either a goat anti-mouse IgG polyclonal antibody (GE Healthcare, #BR-1008-38) or a mouse anti-human IgG monoclonal antibody (GE Healthcare, #BR-1008-39) surface created through direct amine coupling to a Biacore CM5 sensor chip. Kinetic experiments were carried out using HBS-EP (10 mM HEPES, 150 mM NaCl, 3 mM EDTA, 0.05% Surfactant P20, at pH 7.4) or PBS buffer containing 0.05% v/v surfactant P20 as both the running buffer and the sample buffer. Binding to human GFRα3-mmh or monkey GFRα3-mmh was evaluated by injecting several concentrations ranging from 200 to 7.4 nM (3-fold dilutions) across the captured antibody surface. Binding to human GFRα3-mFc or human GFRα3-hFc was evaluated by injecting several concentrations ranging from 100 to 3.7 nM (3-fold dilutions) across the captured antibody surface. Antibody-antigen association was monitored for up to 4 minutes, while dissociation in buffer was monitored for up to 20 minutes. Kinetic association (kₐ) and dissociation (kd) rate constants were determined by processing and fitting the data to a 1:1 binding model using Scrubber 2.0c curve fitting software. Binding dissociation equilibrium constants (KD) and dissociative half-lives (t_{1/2}) were calculated from the kinetic rate constants as: KD (M)=kd/kₐ and t_{1/2} (min)=[ln 2/(60*kd)].

[3] = biological target: T2, human GFRα3 expressed with a C-terminal …; test: SPR, Ab captured, 37C
Procedure: as §1

[4] = biological target: T3, human GFRα3 expressed with a C-terminal …; test: SPR, Ab captured, 37C
Procedure: as §1

Binder	binding response of second antibody (nm) [1]	Kd [2]	koff [2]	kon [2]	t1/2 [2]	Kd [3]	koff [3]	kon [3]	t1/2 [3]	Kd [4]	koff [4]	kon [4]	t1/2 [4]
H4H2291S (antibody, human IgG4, V domains shown, human IgG4 Fc (H4H)) VH: EVQLVESGGGLVQPGESLRLSCAASGFTFSNYAMSWVRQAPGKGLEWVSVISGSGGSTYYADSVKGRFTMSRDNSKNTLYLQMNSLRAEDTAVYYCAKPPSRAARYFNYGMDVWGQGTTVTVSS VL: AIRMTQSPSSVSASVGDRVTITCRASQGISSWLAWYQQKPGKAPKLLIYAASSLQSGVPSRFSGSGSGTDFTLTISSLQPEDFATYYCQQANSFPFTFGGGTKVEIK	0.2 nm	1.94 nM	0.000693 s⁻¹	357000 M⁻¹ s⁻¹	17 min	0.0289 nM	3.84e-05 s⁻¹	1.33e+06 M⁻¹ s⁻¹	301 min	0.58 nM	0.000323 s⁻¹	558000 M⁻¹ s⁻¹	36 min
H4H2295S (antibody, human IgG4, V domains shown, human IgG4 Fc (H4H)) VH: EVQLVESGGGLVQAGGSLRLSCVASGFTFSSYAMSWVRQAPGKGLEWVSAISGSGGSTYSADSVKGRFTISRDNSKNTLYLQMNSLRAEDTAVYYCTKPSSYSSSNFYYGMDVWGQGTTVTVSS VL: DIQMTQSPSSVSASVGDRVTITCRASQGISSWLAWYQQKPGKAPKLLIYTASSLQSGVPSRFSGSGSRTDFTLTISSLQPEDFATYYCQQTNSLPLTFGPGTKVEIK	0.05 nm	20.4 nM	0.00561 s⁻¹	276000 M⁻¹ s⁻¹	2 min	0.0301 nM	4.88e-05 s⁻¹	1.62e+06 M⁻¹ s⁻¹	237 min	1.77 nM	0.00119 s⁻¹	669000 M⁻¹ s⁻¹	10 min
H4H2296S (antibody, human IgG4, V domains shown, human IgG4 Fc (H4H)) VH: not shown VL: DIVMTQSPSSVSASVGDRVTITCRASQGISSWLAWYQQKPGKAPKLLIYAASSLRSGVPSRFSGSGSGTDFTLTITSLQPEDFATYYCQHTNSFPFTFGPGTKVEIK	0.07 nm	10.3 nM	0.00285 s⁻¹	277000 M⁻¹ s⁻¹	4 min	0.0294 nM	4.74e-05 s⁻¹	1.61e+06 M⁻¹ s⁻¹	244 min	0.802 nM	0.000614 s⁻¹	765000 M⁻¹ s⁻¹	19 min
H4H2294S (antibody, human IgG4, V domains shown, human IgG4 Fc (H4H)) VH: EVQLVESGGGLVQPGGSLRLSCAASGFTFSSYAMSWVRQAPGKGLEWVSVISGSGGSTYYADAVKGRFTISRDNSKHTLYLQMNSLRAEDTAVYYCTKPSSYSSSNFYYGMDVWGQGSTVTVSS VL: DIQLTQSPSSVSASVGDRVTITCRASQGISSWLAWYQQKPGKAPKLLIYAASSLQSGVPSRFSGSGSGTDFTLTISSLQPEDFATYYCQQTNSFPFPFGPGTKVDIK	0.02 nm	2.25 nM	0.000974 s⁻¹	433000 M⁻¹ s⁻¹	12 min	0.0209 nM	3.46e-05 s⁻¹	1.66e+06 M⁻¹ s⁻¹	334 min	0.338 nM	0.000261 s⁻¹	773000 M⁻¹ s⁻¹	44 min
H4H2342P (antibody, human IgG4, V domains shown, human IgG4 Fc (H4H)) VH: EVQLLESGGGLVQPGGSLRLSCAASGFTFSTYAMSWVRQAPGKGLEWVSAIRGNGVNTYYGDSMKGRFTISRDNSKDTLYLQMNSLRAEDTAVYYCAKNKWELLVFEYWGQGTLVTVSS VL: DIQMTQSPSSLSASVGDRVTITCRASQDISNYLAWYQQKPGKVPKLLIYAASTLQSGVPFRFSGSGSGTDFTLTISSLQPEDVATYYCQKYNSAPPFGPGTKVDIK	0.01 nm	11.1 nM	0.00166 s⁻¹	150000 M⁻¹ s⁻¹	7 min	0.0354 nM	4.28e-05 s⁻¹	1.21e+06 M⁻¹ s⁻¹	270 min	2.03 nM	0.000671 s⁻¹	330000 M⁻¹ s⁻¹	17 min
H4H2355S (antibody, human IgG4, V domains shown, human IgG4 Fc (H4H)) VH: EVQLVESGGGLVQPGGSLRLSCAASGFTFSSYAMSWVRQVPGKGLEWVSAISGSGDNTYNAESVKGRFTISRDNSKNMLYLQMNSLRAEDTAVYYCAKTKFSSSLLFDYWGQGTLVTVSS VL: not shown	0.02 nm	5.29 nM	0.000913 s⁻¹	173000 M⁻¹ s⁻¹	13 min	0.031 nM	3.39e-05 s⁻¹	1.1e+06 M⁻¹ s⁻¹	341 min	4.37 nM	0.00123 s⁻¹	281000 M⁻¹ s⁻¹	9 min
H4H2357S (antibody, human IgG4, V domains shown, human IgG4 Fc (H4H)) VH: EVQLVESGGGLVQPGGSLRLSCAASTFTFSSYAMTWVRQAPGKGLEWVSSISGSGDSTYYADSVKGRFTISRDNSKNTLFLQMNSLRAEDTAVYYCAKKDGPGRYYVRYGMDVWGQGTTVTVSS VL: DIQMTQSPSSVSASVGDRVTITCRASQGISSWLAWYQQKPGKAPKLLIYTTSSLQSGVPSRFSGSGSGTDFTLTISSLQPEDFATYYCQQANSFPLTFGGGTKVDIK	0.05 nm	7.86 nM	0.00135 s⁻¹	172000 M⁻¹ s⁻¹	9 min	0.0793 nM	9.4e-05 s⁻¹	1.19e+06 M⁻¹ s⁻¹	123 min	7.12 nM	0.0021 s⁻¹	295000 M⁻¹ s⁻¹	6 min
H4H2243N2 (antibody, human IgG4, V domains shown, human IgG4 Fc (H4H)) VH: QVQLVQSGAEVKKPGASVKVSCKASGYTFTSYGIIWVRQAPGQGLEWMGWISGYNGNTNYAQNLQGRVTMTTDTSTTTAYMELRSLRSDDTAVYYCARWGIATRPYYYYGMDVWGQGTTVTVSS VL: DIQMTQSPSSLSASVGDRVTITCRASQDITNYLAWFQQKPGKAPKSLIYAASSLQSGVPSKFSGSGSGTDFTLTISSLQPEDFATYYCQQYNSYPPTFGPGTKVDIK	0.01 nm									5.2 nM	0.00244 s⁻¹	469000 M⁻¹ s⁻¹	5 min
